B1: SEC22B (parent)
chain: AKQLFRKLNEQSPTRCTLEAGAMT
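Also: lentivirally expressed fusions sorted by FACS into six bins by GFP to DsRed ratio, PSI derived from sequencing read proportions per bin multiplied by bin number.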

The data set covers variants of B1. In words: protein stability index of a GFP-peptide fusion (GPS, HEK-293T) (PSI 1-6); higher = more stable. The settings on record: c terminus: a fixed tail appended.
AKALFRKLNEQSPTRCTLEAGAMT [Q3A]: the protein stability index was determined as 2.2.

Regarding AKFLFRKLNEQSPTRCTLEAGAMT [Q3F], the protein stability index worked out at 2.18.

Turning to AKTLFRKLNEQSPTRCTLEAGAMT [Q3T], the protein stability index turned out to be 2.59.

For AKQLFRKLNEQSPTRCTLEAGAKT [M23K], the protein stability index worked out at 2.45.

For the variant AKQLFRKLNEQSPTRCTLEAGAGT [M23G], the protein stability index came out at 2.85.

On to AKQLFRKLNEQSPTRCTLEAGALT [M23L], for which the protein stability index came out at 2.47.

Turning to AKQLFRKLNEQSPTRCTLEAGAVT [M23V], the protein stability index is 1.81.

With AKQLFRKLGEQSPTRCTLEAGAMT [N9G], the protein stability index came to 2.47.

Consider AKQLFRKLHEQSPTRCTLEAGAMT [N9H], for which the protein stability index was 1.84.

As for AKQLFRKLWEQSPTRCTLEAGAMT [N9W], the protein stability index was 3.44.

As for AKQLFRKLNEQSATRCTLEAGAMT [P13A], the protein stability index came to 2.48.

For AKQLFRKLNEQSCTRCTLEAGAMT [P13C], the protein stability index stood at 1.53.

AKQLFRKLNEQSMTRCTLEAGAMT [P13M]: the protein stability index came out at 1.82.

Turning to AKQLFRKLNEQSPTRCKLEAGAMT [T17K], the protein stability index amounted to 1.94.

In the case of AKQLFRKLNEQSPTRCSLEAGAMT [T17S], the protein stability index worked out at 1.81.

Consider AKQLFRKLNEQSPTRCYLEAGAMT [T17Y], for which the protein stability index is 1.61.

Consider AKQLFRKLNEQSPTRCLLEAGAMT [T17L], for which the protein stability index is 2.13.

In the case of AKQLFRKLNEQSPTRQTLEAGAMT [C16Q], the protein stability index was determined as 3.47.

In the case of AKQLFRKLNEQSPTRITLEAGAMT [C16I], the protein stability index amounted to 3.12.

As to AKQLFRKLNEQSPTRDTLEAGAMT [C16D], the protein stability index came to 3.93.

For AKQLFRKLNEQSPTRHTLEAGAMT [C16H], the protein stability index worked out at 3.47.

For AKQLFRKLNEQSPTRATLEAGAMT [C16A], the protein stability index amounted to 3.07.

Take AKQLFRKLNEQSPTRETLEAGAMT [C16E]: the protein stability index was determined as 3.85.

As for AKQLFRKLNEQSPTRCTLEAGPMT [A22P], the protein stability index was determined as 2.25.

As to AKQLFRKLNEQSPTRCTLEAGSMT [A22S], the protein stability index was determined as 2.27.

For AKQLFRKLNEQSPTRCTLEAGKMT [A22K], the protein stability index is 1.79.

Consider AKQLFRKLNEQSPTRCTLEAGIMT [A22I], for which the protein stability index came out at 2.17.

Take AKQLFRKLNEQSPTRCTLEAGYMT [A22Y]: the protein stability index stood at 2.41.

For the variant AKQLFRKLNEQSPTRCTLEAGVMT [A22V], the protein stability index was determined as 1.89.

AKQLFRKLNEQSPTRCTLEAGHMT [A22H]: the protein stability index amounted to 1.82.

For AKQLFRKLNEQSPTRCTLEAGRMT [A22R], the protein stability index came to 2.14.

For the variant AKQLFAKLNEQSPTRCTLEAGAMT [R6A], the protein stability index worked out at 2.14.

Regarding AKQLFHKLNEQSPTRCTLEAGAMT [R6H], the protein stability index was found to be 2.46.

As for AKQLFTKLNEQSPTRCTLEAGAMT [R6T], the protein stability index came to 2.27.

Take AKQLFRELNEQSPTRCTLEAGAMT [K7E]: the protein stability index is 2.89.

For AKQLFRLLNEQSPTRCTLEAGAMT [K7L], the protein stability index turned out to be 1.69.

For AKQLFRYLNEQSPTRCTLEAGAMT [K7Y], the protein stability index turned out to be 1.52.

As for AKQLFRHLNEQSPTRCTLEAGAMT [K7H], the protein stability index stood at 2.64.

For the variant AKQLFRVLNEQSPTRCTLEAGAMT [K7V], the protein stability index worked out at 2.47.

Turning to AKQLFRKLNEQSPTRCTLEVGAMT [A20V], the protein stability index turned out to be 2.49.

AKQLFRKLNEQMPTRCTLEAGAMT [S12M]: the protein stability index is 2.37.

Consider AKQLFRKLNEQEPTRCTLEAGAMT [S12E], for which the protein stability index came to 3.46.

AKQLFRKLNEQKPTRCTLEAGAMT [S12K]: the protein stability index came out at 1.84.

AKQLFRKLNEQTPTRCTLEAGAMT [S12T]: the protein stability index amounted to 1.96.

Take AKQLFRKLNEQSPDRCTLEAGAMT [T14D]: the protein stability index stood at 3.27.

Take AKQLFRKLNEQSPFRCTLEAGAMT [T14F]: the protein stability index is 1.63.

AKQLFRKLNEQSPLRCTLEAGAMT [T14L]: the protein stability index came to 1.94.

Regarding AKQLFRKLNEQSPCRCTLEAGAMT [T14C], the protein stability index is 3.02.

For AKQLFRKLNEQSPTRCTLEAEAMT [G21E], the protein stability index worked out at 2.56.

Turning to AKQLFRKLNEQSPTRCTLEAAAMT [G21A], the protein stability index is 1.96.

Regarding AKQQFRKLNEQSPTRCTLEAGAMT [L4Q], the protein stability index was 2.68.

With AKQHFRKLNEQSPTRCTLEAGAMT [L4H], the protein stability index is 3.12.

Turning to AKQTFRKLNEQSPTRCTLEAGAMT [L4T], the protein stability index is 3.27.

As for AKQFFRKLNEQSPTRCTLEAGAMT [L4F], the protein stability index is 1.89.

Regarding AKQEFRKLNEQSPTRCTLEAGAMT [L4E], the protein stability index was 3.62.

On to AKQLFRKPNEQSPTRCTLEAGAMT [L8P], for which the protein stability index turned out to be 2.82.

As for GKQLFRKLNEQSPTRCTLEAGAMT [A1G], the protein stability index is 2.26.

As to LKQLFRKLNEQSPTRCTLEAGAMT [A1L], the protein stability index was determined as 2.07.

Take RKQLFRKLNEQSPTRCTLEAGAMT [A1R]: the protein stability index came to 2.23.

As to AKQLFRKLNRQSPTRCTLEAGAMT [E10R], the protein stability index stood at 2.22.

Consider AKQLFRKLNQQSPTRCTLEAGAMT [E10Q], for which the protein stability index was determined as 1.54.

As for AKQLFRKLNGQSPTRCTLEAGAMT [E10G], the protein stability index was 2.13.

Turning to AKQLFRKLNHQSPTRCTLEAGAMT [E10H], the protein stability index stood at 2.

For the variant AKQLFRKLNEQSPTRCTLTAGAMT [E19T], the protein stability index stood at 2.56.

In the case of AKQLFRKLNEQSPTRCTLKAGAMT [E19K], the protein stability index was determined as 2.47.

As for AKQLFRKLNEQSPTRCTLGAGAMT [E19G], the protein stability index was found to be 2.12.

On to AKQLFRKLNEQSPTRCTLRAGAMT [E19R], for which the protein stability index is 2.49.

Turning to AKQLFRKLNEQSPTRCTLPAGAMT [E19P], the protein stability index stood at 2.99.

As for AKQLFRKLNEQSPTRCTLAAGAMT [E19A], the protein stability index turned out to be 2.28.

On to AKQLFRKLNEQSPTRCTQEAGAMT [L18Q], for which the protein stability index turned out to be 2.71.

In the case of AKQLFRKLNEQSPTRCTCEAGAMT [L18C], the protein stability index worked out at 2.66.

Consider AKQLFRKLNEQSPTRCTDEAGAMT [L18D], for which the protein stability index came out at 3.92.

For the variant AKQLFRKLNEQSPTRCTAEAGAMT [L18A], the protein stability index was 3.25.

With AKQLFRKLNEQSPTRCTLEAGAME [T24E], the protein stability index is 2.09.

With AKQLFRKLNEQSPTRCTLEAGAMA [T24A], the protein stability index is 1.82.

On to AKQLFRKLNEQSPTRCTLEAGAMN [T24N], for which the protein stability index came out at 1.98.

Take AKQLFRKLNEQSPTRCTLEAGAMF [T24F]: the protein stability index amounted to 1.99.

As to AKQLFRKLNEQSPTRCTLEAGAMV [T24V], the protein stability index amounted to 1.99.

Take AKQLFRKLNEQSPTRCTLEAGAMY [T24Y]: the protein stability index stood at 2.36.

Take APQLFRKLNEQSPTRCTLEAGAMT [K2P]: the protein stability index was found to be 2.57.

Consider AWQLFRKLNEQSPTRCTLEAGAMT [K2W], for which the protein stability index is 2.92.

On to ADQLFRKLNEQSPTRCTLEAGAMT [K2D], for which the protein stability index was determined as 2.42.

ACQLFRKLNEQSPTRCTLEAGAMT [K2C]: the protein stability index was 1.7.

Turning to AIQLFRKLNEQSPTRCTLEAGAMT [K2I], the protein stability index was found to be 1.43.

Take AKQLYRKLNEQSPTRCTLEAGAMT [F5Y]: the protein stability index was 2.28.

With AKQLSRKLNEQSPTRCTLEAGAMT [F5S], the protein stability index stood at 3.44.

Consider AKQLFRKLNELSPTRCTLEAGAMT [Q11L], for which the protein stability index is 1.38.

Turning to AKQLFRKLNECSPTRCTLEAGAMT [Q11C], the protein stability index is 2.13.

AKQLFRKLNEQSPTECTLEAGAMT [R15E]: the protein stability index is 2.81.

As for AKQLFRKLNEQSPTHCTLEAGAMT [R15H], the protein stability index turned out to be 3.44.

On to AKQLFRKLNEQSPTYCTLEAGAMT [R15Y], for which the protein stability index stood at 2.82.

As to AKQLFRKLNEQSPTNCTLEAGAMT [R15N], the protein stability index amounted to 3.19.

As to AKQLFRKLNEQSPTQCTLEAGAMT [R15Q], the protein stability index was found to be 3.55.

For AKQLFRKLNEQSPTKCTLEAGAMT [R15K], the protein stability index came to 3.2.

The record behind these values is the supplement of paper PMC10567573.
